The test has as its target HA76Cda1 (Cda1 with the HA epitope inserted at position 76) (Ustilago maydis). Briefly: FRET or BRET. On the technique in general: BRET reads energy transfer from a luciferase to a nearby fluorophore.

The record followed here is PMC10128019.

For “DyLight 550-labeled AFP1-His (AFP1^550) (natural protein)”, the FRET efficiency was determined as 23%.
